Reference: the DeepSol protein solubility set

test: soluble on expression in E. coli; label from the status in PepcDB or PDB records

Row | Sequence | soluble on expression in E. coli
1 | MAHHHHHHSLKDKPLKLTVEKLVYGGYGFSRLNGKAVFVRFASPKELVEAKVVKEKKDYTEAVVTKVLISSPARRKAPCPYYGECGGCQIQHLNYEEQLRSKKDILLESLERIGKIKEVPYEGEIPSKKEFNYRVRVQFKIQENRVGFYRWDVKEVVDVEECLLAHERINELIPHIREVLKVIKDLQEVHVNYSPTRDEATLKFVTITHTDEKLLQNILENVLPEWVVGIGDYGKVGNSLVKRYKVGREHIFMDVGKWQYRVSNDSFFQVNYTLWEDFLKEVLDFSESYKKGLDLHCGVGFFTIPLSEQGNFIEGADANPSAIKDAEYNAKINNRDNVIFEEATAFKHLKRRIGEVINLVVVDPPRSGLLREERDLLLKNKPDKIVYISCNPTTFARDLKILTKGGYELKRLKLIDNFPQTYHIESIALLEVKDEG | soluble
2 | MCENLYGEEYKMEILRLQKMMNNMTCGQMAKPLTMKDFQIHQALGKGAYGNVYRVRSLHDGKDYALKQIMISSKNEGIPQSVLREITVMKHLARKAHPNIISLKSVFHQLDPVRAILKINMIMERCDWDLHTFLRNIPRGVPEQQAKHVTAQIVRALDFLHTHSIIHRDLKPQNILLNRDQTVKLADFGLSKEYSNTTAFTTLVVTLWYRSPEVLLQSYYNSTVDMWALGCIVSEIYCRQPLFVGQNEAEQLTDIFKKMGTPVGKDWPSESVIARDSFPQYRPTNLKDLSPQMSKQAIEFVQQCLRYDHSKRLSARGALSHPFLKPAVATKSRVLKQINFNK | not soluble
3 | MDFYYLPGSAPCRAVQMTAAAVGVELNLKLTDLMKGEHMKPEFLKLNPQHCIPTLVDNGFALWESRAIQIYLAEKYGKDDKLYPKDPQKRAVVNQRLYFDMGTLYQRFADYHYPQIFAKQPANPENEKKMKDAVGFLNTFLEGQEYAAGNDLTIADLSLAATIATYEVAGFDFAPYPNVAAWFARCKANAPGYALNQAGADEFKAKFLS | soluble
4 | MSLSVKILALDTATERCSVALLVGNTVYSRSEIAPRDHTKKVLPMVDEVLKEAGVTLQELDALAFGRGPGSFTGVRIGIGIAQGLAFGADLPMIGISTLAAMAQAAYRLQGLTHVASAIDARMEEVYWGRYVRQEDGSWQVAEAECVIAPALLAQTLTQDDLTQDEQIWATAGTGWDAYPALADLPLQLQTSEVLYPDAQDMAYLAQFELAQGNKVSVEQASPVYLRDTVAWKKLPGREEGHHHHHH | soluble
5 | MGHQVAIYDSRPFVGGKVGSWIDADGNHIEMGLHVFFFNYANLFALMRKVGAFENLLPKAHTHTFINKGGEVGELDFRFPIGAPFNGLKAFFTTSQLTWLDKLQSALALGTSPLVRGILDYEGAMKIIRALDRISFADWFRSHGGSEGSLKRMWNPIAYALGFIDTENISARCMLTVFQMFAAKTEASKLNLLAGSPAEYLHKPILDYIQARGATLHLQRRVREIEYTETNGQTVVTGLQIADGDAVERVEADVYLAACDVPGIQRLLPEAWRKWSEFDNIYKLDAVPVATVQLRFDGWVTELVDREKRHQLDHATGLDNLLYTADADFSCFTDLALSSPKDYYRKGQGSLLQCVLTPGDPFIAMKNEDIAQHVLKQVHELFPSSRDLNMTWSNVVKLAQSLYREAPGMDPFRPDQKTPIANFFLAGSYTQQDYIDSMEGATISGRRAAKAMLEAQAIAALEHHHHHH | not soluble
6 | ATQGRLRRRPEGARVPSARRGRPRARWRAPQNNPEVDSIMAELKVEAPASVDWQKRCLTLETQLFRFRLQASKIRELLADKMQELEQRLLEAEQRAENAETQVGVMEEKVKLSNLKNVDSEGSLHRKYQELLKAIKGKDELISQLEAQLEKQKQMRAEEAKTVQEKAAKIKEWVTLKLAKLEMENQHLKSHNQRLVEQVGSLQDALEAIQIAPSRKLLVPPYGAAEQDSVPSEPGIQPMGQDSGSQAQGLKAAVLAPSPGALQSKDSVSEAASPLEDSSSSTVHSGETVEAKPLQPHLGRESPPHQPCMKLLTFRCSSASWGEGLVTAQRGMLPGTKTSAREGGPGSSLTLPKVRAPGTPRDSIQLAKRHHSQPQVGHGHFGRVVNIETEAFSALHPSGLPELESRARSREEPEKMEMEEPPPAGKNEERESPKALGAELEEVELGNKPPTPPLHQFSSWESRIYAVATSGMRLSDMSPRSNTACCASSPPALVSPGSFSGLVYKNVTVPVYTALKGRATQISNMPFMDESSGSDDDCSSQASFRISVPSSESRKTSGLGSPRAIKRGVSMSSLSSEGDYAIPPDACSLDSDYSEPEHKLQRTSSYSTDGLGLGGESLEKSGYLLKMGSQVKTWKRRWFVLRQGQIMYYKSPSDVIRKPQGQVDLNSRCQIVRGEGSQTFQLISEKKTYYLTADSPSLLEEWIRVLQSLLKVQATGPPALLRGGTKPTVKGWLTKVKHGHSKVVWCALVGKIFYYYRSHEDKRPLGCLPVRDAHIEEVDRSCDSDEDYEAGGTRRLLSSHCTLVIHPTEHSPTYLLIGTKHEKDTWLYHLTVAAGGSSAKVGTAYEQLIGKLMDGEGDPDSPLWRHPMLCYSKDGLYASLTTLPSEALQTEALKLFKSCQLFINVPVEAASVDYHVSLAQTALQVCLVHPELQSEIYCQLMKQTSCRPPQKYSLMQCWQLLALCAPLFLPQHHFLWYVKQQLQRHADPRSETGQYATYCQRAVERTLRTGEREARPSRMEVVSILLRNPFHHSLPFSIPVHFTNGTYHVVGFDGSSTVDEFLQRLNQEIGMRKPSHSGFALFTDDPSGRDLEHCLQGSVKICDAISKWEQAMKELHPGKSEGGTRVVKLMYKNRLYFRSQVKGETDRERLLLASQTSREIVAGRFPINKELALEMAALMAQVEYGDLEKPALPGPGGTSPAKAQHLLQQVLDRFHPRRYRHGAPAEQLRHLADMLTTKWATLQGCSPPECIRIYLTVARKWPFFGAKLFAAQPAQLSSKENALVWIAVNEDGVSILDHNTMQVHITYPYSSVTTFGGCRDDFMLVIRSIPDKSSGKSHIEKLIFRMAAPKIAEATFIMASYMNHCTTTVNPPTNPPGACQLWELDGRQFFSSVSCATKGPTLL | soluble
7 | GMTVRDENYFTEKYGLTRTHSDVLAAAKVVAPGRTLDLGCGNGRNSLYLAANGYDVTAWDKNPASMANLERIKAAEGLDNLQTDLVDLNTLTFDGEYDFILSTVVMMFLEAQTIPGLIANMQRCTKPGGYNLIVAAMDTPDFPCTVGFPFAFKEGELRRYYEGWDMLKYNEDVGELHRTDENGNRIKLRFATMLARKTA | soluble
8 | MLDVHPSGFYAWLQQPHSQRHQADLRLTGQIKQFWLESGCVYGYRKIHLDLRDSGQQCGVNRVWRLMKRVGIKAQVGYRSPRARKGEASIVSPNRLQRQFNPDAPDERWVTDITYIRTHEGWLYLAVVVDLFSRKIIGWSMQSRMTKDIVLNALLMAVWRRNPEKQVLVHSDQGSQYTSHEWQSFLKSHGLEG | not soluble
9 | MEVRGMDTIGHHYIVEAAGCDPNVIGDANKIREIFLEAAKRGNMEVKASYFFKFSPMGVSGVVIVAESHISVHTWPEKGYAALDVYTCGENADPEKAVDYILEQFKAQYAHVSEIKRGIEEEDRTFTHTILTWEERLDRRNGKP | soluble
10 | MKVFDVHKFDMKKEQDFLQVQFNLKNRINLSPTIHPDSINTGAGVDLAYWEQDGEPYGVCCIIVIDADTKEVIEKVHSMGRISVPYVSGFLAFRELPLIIEAAKKLETEPDVFLFDGNGYLHYNHMGVATHAAFFLGKPTIGIAKTYLKIKGCDFVTPEIEVGAYTDIIIDGEVYGRALRTRRDVKPIFLSCGNYIDLDSSYQITMSLINQESRLPIPVRLADLETHVLRTFYQKNHVLEHHHHHH | soluble
11 | MAHHHHHHMNFEDDDDIVIPGEFLGLQAEYINGNNTYLLKDEIRSSILGQKIINKNNDKKTIISVYNLKPPSLYLPKIGDIVICKVQRVSFHMIYCYILSSHNIFTKNALKGFILKSDIHINEGELGDNFICFKQGDIIKAKVLSIGQYSSYKLSTVGSELGVIAAFNQKGEILRPVAWNLVLNINDMTFERRKASNDFSLLL | not soluble
12 | MGSDKIHHHHHHMTTTIQALEKHLQVRLLNRTTRKISLTPDGAVYYDRTARILADVADIESSFHDAERGPRGQLRIDVPVSIGRLILIPRLRDFHARYPDIDLVIGLNDRPVDLVGEAVDCAIRVGELKDSSLIARRIGTFQCATAASPIYLEKYGEPTSIEDLQKNHKAIHFFSSRTGRNFDWDFVVDDLIKSVSVRGRVSVNDGDAYIDLALQGFGIIQGPRYMLTNHLESGLLKEVLPQWTPAPMPISAVYLQNRHLSLKVKVFVDWVAELFAGCPLLGGTALPFDQKCEFACDKETGHEYTIRTLVEQHNIAEAYTLKT | not soluble
